Reference: patent publication US20060257938A1, “Method of screening for drugs that block ligand binding to a lipid binding protein” (priority 2005, published 2006)
Several values for one entry are separate records, joined by “and”; a condition that tells them apart may be missing. Identical values can stand only once.

Tests used:
Type in all cases: binding
[1] = Probe fluorescence ratio response to linolenic acid relative to ADIFAB2; details: response relative to ADIFAB2
Summary of the method: (§1)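 Fluorescently labeled rat intestinal FABP variants were read at two emission wavelengths, near the unbound maximum (about 420 to 480 nm) and the FFA-bound maximum (about 495 to 580 nm). R = Fλ1/Fλ2 after subtracting probe-free intensity; ΔR = R+agent − R0, normalized to ADIFAB2 (rI-FABP-L72A).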

[2] = Probe fluorescence ratio response to palmitic acid relative to ADIFAB2; details: response relative to ADIFAB2
Summary of the method: as §1

[3] = Probe fluorescence ratio response to oleic acid relative to ADIFAB2; details: response relative to ADIFAB2
Summary of the method: as §1

[4] = Probe fluorescence ratio response to arachidonic acid relative to ADIFAB2; details: arachidonic acid; response relative to ADIFAB2
Summary of the method: as §1

[5] = Probe fluorescence ratio response to linoleic acid relative to ADIFAB2; details: response relative to ADIFAB2
Summary of the method: as §1

Molecule | DR/DR LNA [1] | DR/DR PA [2] | DR/DR OA [3] | DR/DR AA [4] | DR/DR LA [5]
126I, 72A (protein, listed as Rattus norvegicus, PEPTIDE (1)...(131) wild-type rat intestinal fatty acid binding protein) AFDGTWKVDRNENYEKFMEKMGINVVKRKLGAHDNLKLTITQEGNKFTVKESSNFRNIDVVFELGVDFAYSAADGTELTGTWTMEGNKLVGKFKRVDNGKELIAVREISGNELIQTYTYEGVEAKIIFKKE | 0.43 | 0.38 | 0.34 | 0.45 | 0.43
14E, 72A (protein, listed as Rattus norvegicus, PEPTIDE (1)...(131) wild-type rat intestinal fatty acid binding protein) AFDGTWKVDRNENEEKFMEKMGINVVKRKLGAHDNLKLTITQEGNKFTVKESSNFRNIDVVFELGVDFAYSAADGTELTGTWTMEGNKLVGKFKRVDNGKELIAVREISGNELIQTYTYEGVEAKRIFKKE | 0.61 | 0.44 | 0.41 | 0.51 | 0.56
126V, 72A (protein, listed as Rattus norvegicus, PEPTIDE (1)...(131) wild-type rat intestinal fatty acid binding protein) AFDGTWKVDRNENYEKFMEKMGINVVKRKLGAHDNLKLTITQEGNKFTVKESSNFRNIDVVFELGVDFAYSAADGTELTGTWTMEGNKLVGKFKRVDNGKELIAVREISGNELIQTYTYEGVEAKVIFKKE | 0.42 | 0.34 | 0.33 | 0.42 | 0.45
14K, 72A (protein, listed as Rattus norvegicus, PEPTIDE (1)...(131) wild-type rat intestinal fatty acid binding protein) AFDGTWKVDRNENKEKFMEKMGINVVKRKLGAHDNLKLTITQEGNKFTVKESSNFRNIDVVFELGVDFAYSAADGTELTGTWTMEGNKLVGKFKRVDNGKELIAVREISGNELIQTYTYEGVEAKRIFKKE | 0.92 | 0.47 | 0.84 | 1.08 | 1.06
14G, 72A (protein, listed as Rattus norvegicus, PEPTIDE (1)...(131) wild-type rat intestinal fatty acid binding protein) AFDGTWKVDRNENGEKFMEKMGINVVKRKLGAHDNLKLTITQEGNKFTVKESSNFRNIDVVFELGVDFAYSAADGTELTGTWTMEGNKLVGKFKRVDNGKELIAVREISGNELIQTYTYEGVEAKRIFKKE | 0.46 | 0.19 | 0.24 | 0.43 | 0.42
14N, 72A (protein, listed as Rattus norvegicus, PEPTIDE (1)...(131) wild-type rat intestinal fatty acid binding protein) AFDGTWKVDRNENNEKFMEKMGINVVKRKLGAHDNLKLTITQEGNKFTVKESSNFRNIDVVFELGVDFAYSAADGTELTGTWTMEGNKLVGKFKRVDNGKELIAVREISGNELIQTYTYEGVEAKRIFKKE | 0.53 | 0.32 | 0.35 | 0.42 | 0.49
14H, 72A (protein, listed as Rattus norvegicus, PEPTIDE (1)...(131) wild-type rat intestinal fatty acid binding protein) AFDGTWKVDRNENHEKFMEKMGINVVKRKLGAHDNLKLTITQEGNKFTVKESSNFRNIDVVFELGVDFAYSAADGTELTGTWTMEGNKLVGKFKRVDNGKELIAVREISGNELIQTYTYEGVEAKRIFKKE | 0.42 | 0.17 | 0.25 | 0.37 | 0.45
126L, 72A (protein, listed as Rattus norvegicus, PEPTIDE (1)...(131) wild-type rat intestinal fatty acid binding protein) AFDGTWKVDRNENYEKFMEKMGINVVKRKLGAHDNLKLTITQEGNKFTVKESSNFRNIDVVFELGVDFAYSAADGTELTGTWTMEGNKLVGKFKRVDNGKELIAVREISGNELIQTYTYEGVEAKLIFKKE | 0.66 | 0.38 | 0.55 | 0.66 | 0.64
126M, 72A (protein, listed as Rattus norvegicus, PEPTIDE (1)...(131) wild-type rat intestinal fatty acid binding protein) AFDGTWKVDRNENYEKFMEKMGINVVKRKLGAHDNLKLTITQEGNKFTVKESSNFRNIDVVFELGVDFAYSAADGTELTGTWTMEGNKLVGKFKRVDNGKELIAVREISGNELIQTYTYEGVEAKMIFKKE | 0.28 | 0.29 | 0.24 | 0.32 | 0.31
102I, 72A (protein, listed as Rattus norvegicus, PEPTIDE (1)...(131) wild-type rat intestinal fatty acid binding protein) AFDGTWKVDRNENYEKFMEKMGINVVKRKLGAHDNLKLTITQEGNKFTVKESSNFRNIDVVFELGVDFAYSAADGTELTGTWTMEGNKLVGKFKRVDNGKEIIAVREISGNELIQTYTYEGVEAKRIFKKE | 1.76 and 1.763 | 1.17 and 1.169 | 1.93 and 1.929 | 1.46 and 1.461 | 1.90 and 1.902
14L, 72A (protein, listed as Rattus norvegicus, PEPTIDE (1)...(131) wild-type rat intestinal fatty acid binding protein) AFDGTWKVDRNENLEKFMEKMGINVVKRKLGAHDNLKLTITQEGNKFTVKESSNFRNIDVVFELGVDFAYSAADGTELTGTWTMEGNKLVGKFKRVDNGKELIAVREISGNELIQTYTYEGVEAKRIFKKE | 0.93 | 3.07 | 0.44 | 0.89 | 0.87
14M, 72A (protein, listed as Rattus norvegicus, PEPTIDE (1)...(131) wild-type rat intestinal fatty acid binding protein) AFDGTWKVDRNENMEKFMEKMGINVVKRKLGAHDNLKLTITQEGNKFTVKESSNFRNIDVVFELGVDFAYSAADGTELTGTWTMEGNKLVGKFKRVDNGKELIAVREISGNELIQTYTYEGVEAKRIFKKE | 0.68 and 0.684 | 0.45 and 0.452 | 0.41 and 0.412 | 0.62 and 0.619 | 0.68 and 0.685
14P, 72A (protein, listed as Rattus norvegicus, PEPTIDE (1)...(131) wild-type rat intestinal fatty acid binding protein) AFDGTWKVDRNENPEKFMEKMGINVVKRKLGAHDNLKLTITQEGNKFTVKESSNFRNIDVVFELGVDFAYSAADGTELTGTWTMEGNKLVGKFKRVDNGKELIAVREISGNELIQTYTYEGVEAKRIFKKE | 0.64 | 0.30 | 0.58 | 0.55 | 0.64
14D, 72A (protein, listed as Rattus norvegicus, PEPTIDE (1)...(131) wild-type rat intestinal fatty acid binding protein) AFDGTWKVDRNENDEKFMEKMGINVVKRKLGAHDNLKLTITQEGNKFTVKESSNFRNIDVVFELGVDFAYSAADGTELTGTWTMEGNKLVGKFKRVDNGKELIAVREISGNELIQTYTYEGVEAKRIFKKE | 0.51 | 0.28 | 0.34 | 0.46 | 0.53
14A, 72A (protein, listed as Rattus norvegicus, PEPTIDE (1)...(131) wild-type rat intestinal fatty acid binding protein) AFDGTWKVDRNENAEKFMEKMGINVVKRKLGAHDNLKLTITQEGNKFTVKESSNFRNIDVVFELGVDFAYSAADGTELTGTWTMEGNKLVGKFKRVDNGKELIAVREISGNELIQTYTYEGVEAKRIFKKE | 0.56 | 0.24 | 0.36 | 0.53 | 0.56
14F, 72A (protein, listed as Rattus norvegicus, PEPTIDE (1)...(131) wild-type rat intestinal fatty acid binding protein) AFDGTWKVDRNENFEKFMEKMGINVVKRKLGAHDNLKLTITQEGNKFTVKESSNFRNIDVVFELGVDFAYSAADGTELTGTWTMEGNKLVGKFKRVDNGKELIAVREISGNELIQTYTYEGVEAKRIFKKE | 0.88 | 0.60 | 0.72 | 0.83 | 0.88
14I, 72A (protein, listed as Rattus norvegicus, PEPTIDE (1)...(131) wild-type rat intestinal fatty acid binding protein) AFDGTWKVDRNENIEKFMEKMGINVVKRKLGAHDNLKLTITQEGNKFTVKESSNFRNIDVVFELGVDFAYSAADGTELTGTWTMEGNKLVGKFKRVDNGKELIAVREISGNELIQTYTYEGVEAKRIFKKE | 0.90 and 0.899 | 0.59 and 0.586 | 0.57 and 0.572 | 0.57 and 0.572 | 0.79 and 0.792
